According to US20130216544A1 (GEMOAB MONOCLONALS, published 2013):
Positions count from the first letter of the chain named.

T1: eukaryotic murine La protein (mLa) (murine, UniProt P32067 1-415)
T1 construct: In total extracts or fixed cells; also called endogenous mLa protein; eukaryote-produced murine La protein
T1 sequence (looked up): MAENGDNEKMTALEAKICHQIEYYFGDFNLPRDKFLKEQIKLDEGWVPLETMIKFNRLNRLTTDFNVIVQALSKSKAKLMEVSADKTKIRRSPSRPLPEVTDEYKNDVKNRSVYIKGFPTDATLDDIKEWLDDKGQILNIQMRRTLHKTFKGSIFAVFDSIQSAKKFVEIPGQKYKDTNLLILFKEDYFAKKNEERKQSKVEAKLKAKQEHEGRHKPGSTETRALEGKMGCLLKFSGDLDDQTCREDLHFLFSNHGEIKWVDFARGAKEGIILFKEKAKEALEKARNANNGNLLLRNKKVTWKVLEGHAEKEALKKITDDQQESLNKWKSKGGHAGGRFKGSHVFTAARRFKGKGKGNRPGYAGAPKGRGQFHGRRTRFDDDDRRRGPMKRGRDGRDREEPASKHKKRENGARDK

T2: recombinant human La protein (rhLa), SEQ ID No. 1 with His tag (human, UniProt P05455 1-408)
T2 construct: Also used to decorate the surface of 3T3 and HEK 293T PSCA cells; also called rhLa protein; His 6hLa protein; not shown: His tag
T2 sequence: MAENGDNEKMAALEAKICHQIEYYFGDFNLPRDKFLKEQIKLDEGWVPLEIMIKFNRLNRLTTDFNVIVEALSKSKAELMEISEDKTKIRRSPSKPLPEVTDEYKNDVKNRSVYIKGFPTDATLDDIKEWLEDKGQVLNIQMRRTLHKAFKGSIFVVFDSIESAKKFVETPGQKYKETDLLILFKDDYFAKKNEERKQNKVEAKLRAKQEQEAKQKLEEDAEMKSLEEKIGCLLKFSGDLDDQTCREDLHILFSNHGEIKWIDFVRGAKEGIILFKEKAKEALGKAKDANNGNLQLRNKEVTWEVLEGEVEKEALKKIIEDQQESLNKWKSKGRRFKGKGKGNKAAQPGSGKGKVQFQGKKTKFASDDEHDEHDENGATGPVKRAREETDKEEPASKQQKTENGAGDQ

T3: bacterially produced recombinant murine La protein (rmLa) (murine, UniProt P32067 1-415)
T3 construct: also called prokaryote-produced murine La protein
T3 sequence (looked up): T1 sequence (looked up)

B1: anti-La monoclonal antibody 27E (antibody, IgG2b, V domains shown)
VH: VQLQESGAELARPGASVKLSCKASGYSFRSYGINWVKQRTGQGLEWIGEIYPGSGTTFYNEKFRGKATLTADKSSSTAYMQLKSLTSEDSAVYFCARHGGYPFYFDYWGQGTTLTVSS
VL: DIVMTQSPAIMSASPGEKVTISCSASSSVSYMYWYQQKPGSSPKPWIYRTSNLASGVPARFSGSGSGTSYSLTISSMEAEDAATYYCQQYHSYPRTFGGGTKLEIKR
B2: anti-La monoclonal antibody 32A (antibody, IgG1, V domains shown)
VH: VQLQQSGAELARPGASVKLSCKASGYTFTTYGLTWVKQRTGQGLEWIGEIFPGSGTTFYNEKFNDKATLTADKSSSTAYMQLTSLTSEDSAVYFCARYSNYPYYFDYWGQGTTLTVSS
VL: B1 VL with D1Q, M4L, A9T, A59D
B3: anti-La monoclonal antibody 22A (antibody, IgG1, V domains shown)
VH: QVKLEESGPELVKPGAPVKISCKTSGYTFTNYYIYWVKQRPGQGLEWIGYIYPGNGGTAYNQKFKDKATLTADNPSNTAYMQLSSLTSEDSAVYLCARRGALGYYFDYWGQGTTLTVSS
VL: QIVLTQSPAIMSASPGEKVTMTCSASSSVSYMYWYQQKSGTSPKRWIYDTSKLASGVPARFSGSGSGTSYSLTISSMEAEDAATYYCQQWSSNPQFGTGTKLEVKR
B4: anti-La monoclonal antibody 5B9 (antibody, IgG2a, V domains shown)
VH: VQLEESGAELVKPGASVKLSCKASGYAFTHYYIYWIKQRPGQGLEWIGGVNPSNGGTHFNEKFKSKATLTVDKSSSTAYMQLSSLTSEDSAVYYCTRSEYDYGLGFAYWGQGTLVTVSA
VL: IVLTQTTSSLAVSAGEKVTMSCKSSQSLLNSRTPKNYLAWYQQKPGQSPKLLIYWASTRKSGVPDRFTGSGSGTDFTLTISSVQAEDLAVYYCKQSYNLLTFGAGTKLELKR
notes: also called anti-La-5B9
B5: anti-La monoclonal antibody 312B (antibody, IgG1, V domains shown)
VH: QVKLQESGAELMKPGSSVKFSCKAAGYTFTDYWIEWLKQRPGHGLEWIGEILPGSVSIKYNEKFKGKATFTADTSSNTAYMQLSSLTSEDSAVYYCARSRSIYDGYFYYWGQGTTLTVSS
VL: DIVMTQSTASLSASVGETVTITCRASENIYTYLAWYQQKQGKSPQLLVYNAKTLAEGVPSRFSGSGSGTQFSLRINSLQPEDFGSYYCQHHYGTPYTFGGGTKLEIK
B6: anti-La monoclonal antibody 24BG7 (antibody, IgG1, V domains shown)
VH: QVQLQQSGAELARPGASVKLSCKASGYSLTNYGISWVKQRTGQGLEWIGEIYRGSGNSYYNEKFKGKASLTADKSSSTAYMQLSSLTSEDSAVYFCARGGLSFAYWGQGTLVTVSA
VL: QIVLTQSPAIMSASPGEKVTMTCSASSSVTYMHWYQQKSGTSPKRWIYDTSKLASGVPARFSGSGSGTSYSLTISTMEAEDAATYYCQQWISNPPTFGGGTKLEIKR
B7: anti-La monoclonal antibody 2F9 (antibody, IgG1, V domains shown)
VH: EVQLQESGPGILQPSQTLSLTCSFSGFSLSTSGMGVSWIRQPSGKGLEWLAHIYWDDDKGYNPSLKSRLTISKDTSRNQVFLKITSVDTADTATYYCARGDVEFDYWGQGTTLTVSS
VL: DIVLTQSTASLAVSLGQRATISCRASESVDSYGNSFMHWYQQKPGQPPKLLIYRASNLESGIPARFSGSGSRTDFTLTINPVEADDVATYYCQQSNEDPPTFGSGTKLEIK
B8: anti-La monoclonal antibody 7B6 (antibody, V domains shown)
VH: VKLQESGGGLVQPGRPMKLSCVASGFTFSDFWMNWVRQSPEKGLEWVAQIRNKPNNYETYYSDSLKGRFTISRDDSKSSVYLQMNNLRPEDMGIYYCTLGNSWFAYWGQGTLVTVS
VL: DIVITQSPSSLAVSAGEKVTMSCRSSQSLLDSRTRKNYLAWYQQKPGQSPKLLIYWASTRESGVPDRFTGSGSGTDFTLTISNVQAEDLAVYYCKQSYNLPTFGGGTKLEI
notes: Used as hybridoma supernatant or mAb; also called mAk 7B6; anti-La 7B6

Columns and labels:
[1] = biological target: T1, eukaryotic murine La protein (mLa); assay: immunoblot, 3T3 total extract
[2] = biological target: T2, recombinant human La protein (rhLa), …; assay: method and form of the antigen not stated
[3] = biological target: T3, bacterially produced recombinant murine …; assay: immunoblot, bacterially produced rmLa

Row | Binder | binding result [1] | Kd [2] | binding result [3]
1 | B1 | binds | ~0.1 nM | binds
2 | B2 | no binding | ~0.1 nM | no binding
3 | B3 | no binding | ~0.1 nM | no binding
4 | B4 | – | ~0.1 nM | –
5 | B5 | binds | ~0.1 nM | binds
6 | B6 | – | ~0.1 nM | –
7 | B7 | – | – | binds
8 | B8 | – | ~0.1 nM | –
